US12247072 (ASHER BIOTHERAPEUTICS, dated 2025)

Experiments:
[1] = target: T1, Human IL-21R (Biolegend, Catalog No. 773104) (human, UniProt Q9HBE5 20-232, limits assumed); assay: SPR, 37 C;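 as to Kd: fc fusion proteins captured on an anti-human IgG Fc Biacore surface, 10 min dissociation, double-referenced data fitted to a 1:1 Langmuir model with mass transport, triplicate runs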;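 as to koff: fc fusion proteins captured on an anti-human IgG Fc Biacore surface, 10 min dissociation, double-referenced data fitted to a 1:1 Langmuir model with mass transport, triplicate runs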;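 as to kon: fc fusion proteins captured on an anti-human IgG Fc Biacore surface, 10 min dissociation, double-referenced data fitted to a 1:1 Langmuir model with mass transport, triplicate runs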
T1 construct: Bought; also called human IL-21 receptor

[2] = target: T1, Human IL-21R (Biolegend, Catalog No. …); assay: SPR, 37 C; remark: listed apart in the source

T1 sequence (Q9HBE5 20-232 limits assumed): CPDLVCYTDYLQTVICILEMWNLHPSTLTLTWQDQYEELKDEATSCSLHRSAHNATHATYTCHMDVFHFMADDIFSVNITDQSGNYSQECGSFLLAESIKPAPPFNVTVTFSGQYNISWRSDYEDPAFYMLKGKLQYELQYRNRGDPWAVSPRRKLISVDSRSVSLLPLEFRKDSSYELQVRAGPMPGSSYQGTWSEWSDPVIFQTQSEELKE

Binder | fold difference of IL-21R affinity against wild type IL-21 [1] | Kd [2] | koff [2] | kon [2]
xhCD8-hIL21 v2 (other, Human IgG1/kappa, knob-into-hole, L234A/L235A/G237A; also called xhCD8-Fc-hIL21 v2; exemplary IL-21 polypeptide 2) VH: QVHLQQSGPELVKPGASVKMSCKTSGYTFTKYTMHWVKQGHEESLEWIGHFNPNNDETKYNQKFTGKATLTVDKSSTTAYMELRSLTSDDSALYYCARDGLGLRLFADWGQGTLITVSA VL: DIQMTQSPASLSASVGETVTITCGASENIYGALNWYQRKQGKSPQLLIFGATNLADGVSSRFSGSGSDRQYSLKISSLHPDDVATYYCQNILDTPWTFGGGTKLEIK not shown | ≤ 2 fold | 0.122 nM | 0.0011 s⁻¹ | 8.9e+06 M⁻¹ s⁻¹
xhCD8-hIL21 v6 (other, Human IgG1/kappa, knob-into-hole, L234A/L235A/G237A; also called exemplary IL-21 polypeptide 6) VH: QVHLQQSGPELVKPGASVKMSCKTSGYTFTKYTMHWVKQGHEESLEWIGHFNPNNDETKYNQKFTGKATLTVDKSSTTAYMELRSLTSDDSALYYCARDGLGLRLFADWGQGTLITVSA VL: DIQMTQSPASLSASVGETVTITCGASENIYGALNWYQRKQGKSPQLLIFGATNLADGVSSRFSGSGSDRQYSLKISSLHPDDVATYYCQNILDTPWTFGGGTKLEIK not shown | ~3 fold | 0.478 nM | 0.0025 s⁻¹ | 5.2e+06 M⁻¹ s⁻¹
xhCD8.1-hIL21 v29 (other, Human IgG1/kappa, knob-into-hole, L234A/L235A/G237A) VH: QVQLVQSGAEVKKPGSSVKVSCKASGGTFSSYAISWVRQAPGQGLEWMGGIIPGYATANYAQKFQGRVTITADESTSTAYMELSSLRSEDTAVYYCARDAAGIRLFADWGQGTLVTVSS VL: DIQMTQSPSSLSASVGDRVTITCRASQSIYGALNWYQQKPGKAPKLLIYGASNLQSGVPSRFSGSGSGTDFTLTISSLQPEDFATYYCQSTYTAPWTFGGGTKVEIK QGQDRHMIRMRQLIDIVDQLKNYVNDLVPEFLPAPEDVETNCEWSAFSCFQKAQLKSANTGNNERIINVSIKKLKRKPPGGGGEGGGGGEGGCPSCDSYEKKPPKEFLERFKSLLQKMIHQHLSSRTHGSEDS | ≤ 2 fold | 0.094 nM | 0.00119 s⁻¹ | 1.27e+07 M⁻¹ s⁻¹

More lines, in order of falling Kd [2], values ahead:

fold difference of IL-21R affinity against wild type IL-21 [1] | Kd [2] | koff [2] | kon [2] | Binder
≤ 2 fold | 0.117 nM | 0.00097 s⁻¹ | 8.3e+06 M⁻¹ s⁻¹ | xhCD8-hIL21 v1 (other, Human IgG1/kappa, knob-into-hole, L234A/L235A/G237A; also called exemplary IL-21 polypeptide 1) VH: QVHLQQSGPELVKPGASVKMSCKTSGYTFTKYTMHWVKQGHEESLEWIGHFNPNNDETKYNQKFTGKATLTVDKSSTTAYMELRSLTSDDSALYYCARDGLGLRLFADWGQGTLITVSA VL: DIQMTQSPASLSASVGETVTITCGASENIYGALNWYQRKQGKSPQLLIFGATNLADGVSSRFSGSGSDRQYSLKISSLHPDDVATYYCQNILDTPWTFGGGTKLEIK not shown
≤ 2 fold | 0.106 nM | 0.00139 s⁻¹ | 1.31e+07 M⁻¹ s⁻¹ | xhCD8.1-hIL21 v27 (other, Human IgG1/kappa, knob-into-hole, L234A/L235A/G237A) VH: QVQLVQSGAEVKKPGSSVKVSCKASGGTFSSYAISWVRQAPGQGLEWMGGIIPGYATANYAQKFQGRVTITADESTSTAYMELSSLRSEDTAVYYCARDAAGIRLFADWGQGTLVTVSS VL: DIQMTQSPSSLSASVGDRVTITCRASQSIYGALNWYQQKPGKAPKLLIYGASNLQSGVPSRFSGSGSGTDFTLTISSLQPEDFATYYCQSTYTAPWTFGGGTKVEIK not shown
≤ 2 fold | 0.106 nM | 0.00139 s⁻¹ | 1.31e+07 M⁻¹ s⁻¹ | xhCD8.1-hIL21 v28 (other, Human IgG1/kappa, knob-into-hole, L234A/L235A/G237A) VH: QVQLVQSGAEVKKPGSSVKVSCKASGGTFSSYAISWVRQAPGQGLEWMGGIIPGYATANYAQKFQGRVTITADESTSTAYMELSSLRSEDTAVYYCARDAAGIRLFADWGQGTLVTVSS VL: DIQMTQSPSSLSASVGDRVTITCRASQSIYGALNWYQQKPGKAPKLLIYGASNLQSGVPSRFSGSGSGTDFTLTISSLQPEDFATYYCQSTYTAPWTFGGGTKVEIK not shown
≤ 2 fold | 0.093 nM | 0.00107 s⁻¹ | 1.16e+07 M⁻¹ s⁻¹ | xhCD8.1-hIL21 v30 (other, Human IgG1/kappa, knob-into-hole, L234A/L235A/G237A) VH: QVQLVQSGAEVKKPGSSVKVSCKASGGTFSSYAISWVRQAPGQGLEWMGGIIPGYATANYAQKFQGRVTITADESTSTAYMELSSLRSEDTAVYYCARDAAGIRLFADWGQGTLVTVSS VL: DIQMTQSPSSLSASVGDRVTITCRASQSIYGALNWYQQKPGKAPKLLIYGASNLQSGVPSRFSGSGSGTDFTLTISSLQPEDFATYYCQSTYTAPWTFGGGTKVEIK not shown
